Measured values published in publication PMC3311620.

Target: CXCR7-RLuc (human) (UniProt P25106)
UniProt P25106, sequence (P25106 whole entry): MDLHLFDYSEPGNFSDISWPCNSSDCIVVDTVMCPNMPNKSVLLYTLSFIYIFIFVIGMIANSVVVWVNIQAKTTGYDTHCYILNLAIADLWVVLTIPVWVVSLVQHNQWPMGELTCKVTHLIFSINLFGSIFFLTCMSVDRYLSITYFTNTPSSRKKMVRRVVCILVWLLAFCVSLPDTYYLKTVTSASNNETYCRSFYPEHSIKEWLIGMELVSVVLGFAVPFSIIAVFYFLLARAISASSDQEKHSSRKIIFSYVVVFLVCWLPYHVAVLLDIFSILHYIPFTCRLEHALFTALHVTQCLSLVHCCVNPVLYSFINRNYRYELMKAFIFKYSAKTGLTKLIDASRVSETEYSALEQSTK

B1: CXCL11 (I-TAC) (ligand)
chain: FPMFKRGRCLCIGPGVKAVKVADIEKASIMYPSNNCDKIEVIITLKENKGQRCLNPKSKQARLIIKKVERKNF
- pEC50 of CXCL11 for β-arrestin1-YFP recruitment to CXCR7-RLuc (BRET, HEK293T): 8.7
- pEC50 of CXCL11 for β-arrestin2-YFP recruitment to CXCR7-RLuc (BRET, HEK293T): 8.5
